# B1: BBSome complex member BBS2 (Homo sapiens), Q9BXC9 (parent)
# chain: MLLPVFTLKLRHKISPRMVAIGRYDGTHPCLAAATQTGKVFIHNPHTRNQHVSASRVFQSPLESDVSLLSINQAVSCLTAGVLNPELGYDALLVGTQTNLLAYDVYNNSDLFYREVADGANAIVLGTLGDISSPLAIIGGNCALQGFNHEGSDLFWTVTGDNVNSLALCDFDGDGKKELLVGSEDFDIRVFKEDEIVAEMTETEIVTSLCPMYGSRFGYALSNGTVGVYDKTSRYWRIKSKNHAMSIHAFDLNSDGVNELITGWSNGKVDARSDRTGEVIFKDNFSSAIAGVVEGDYRMDGHIQLICCSVDGEIRGYLPGTAEMRGNLMDTSAEQDLIRELSQKKQNLLLELRNYEENAKAELASPLNEADGHRGIIPANTRLHTTLSVSLGNETQTAHTELRISTSNDTIIRAVLIFAEGIFTGESHVVHPSIHNLSSSICIPIVPPKDVPVDLHLKAFVGYRSSTQFHVFESTRQLPRFSMYALTSLDPASEPISYVNFTIAERAQRVVVWLGQNFLLPEDTHIQNAPFQVCFTSLRNGGHLHIKIKLSGEITINTDDIDLAGDIIQSMASFFAIEDLQVEADFPVYFEELRKVLVKVDEYHSVHQKLSADMADHSNLIRSLLVGAEDARLMRDMKTMKSRYMELYDLNRDLLNGYKIRCNNHTELLGNLKAVNQAIQRAGRLRVGKPKNQVITACRDAIRSNNINTLFKIMRVGTASS
# partner: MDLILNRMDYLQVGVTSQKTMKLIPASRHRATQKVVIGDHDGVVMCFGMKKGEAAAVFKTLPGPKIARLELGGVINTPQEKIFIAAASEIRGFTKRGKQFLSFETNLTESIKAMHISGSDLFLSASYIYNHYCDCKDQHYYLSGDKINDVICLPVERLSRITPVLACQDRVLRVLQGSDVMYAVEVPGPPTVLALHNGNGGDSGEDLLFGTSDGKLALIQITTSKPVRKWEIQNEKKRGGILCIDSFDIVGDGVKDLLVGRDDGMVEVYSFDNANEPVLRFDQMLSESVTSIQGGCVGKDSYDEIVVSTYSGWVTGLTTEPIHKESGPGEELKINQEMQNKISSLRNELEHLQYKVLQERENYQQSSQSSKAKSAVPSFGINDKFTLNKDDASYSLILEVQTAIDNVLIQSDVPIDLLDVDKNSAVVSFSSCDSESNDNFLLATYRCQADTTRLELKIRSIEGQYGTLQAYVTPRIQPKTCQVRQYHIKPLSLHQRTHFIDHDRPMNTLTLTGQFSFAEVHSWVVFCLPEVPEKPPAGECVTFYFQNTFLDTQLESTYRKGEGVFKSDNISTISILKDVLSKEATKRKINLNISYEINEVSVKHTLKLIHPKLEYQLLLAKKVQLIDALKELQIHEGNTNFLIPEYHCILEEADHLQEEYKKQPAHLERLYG
# Variants of: B1
# Conditions: with BBS7, Q8IWZ6-2
row,Variant,effect of a mutation on the interaction
1,S611A,with no effect
2,S611K,with no effect
3,S611E,with no effect
4,Y603A,with no effect
5,Y603K,with no effect
6,Y603E,with no effect
7,E602A,with no effect
8,E602K,with no effect
9,D616K,with no effect
10,D616E,with no effect
11,D616A,with no effect
12,I568K,with no effect
13,I568A,with no effect
14,I568E,disrupting interaction strength
15,V596A,with no effect
16,V596E,with no effect
17,V596K,with no effect
18,A564H,disrupting interaction strength
19,A564K,with no effect
20,A564E,with no effect
21,A564R,disrupting interaction strength
22,D562A,disrupting interaction strength
23,D562E,with no effect

row,Variant,effect of a mutation on the interaction
1,D562K,with no effect
2,I561K,with no effect
3,I561E,with no effect
4,I561A,with no effect
5,I561C,disrupting interaction strength
6,S605A,with no effect
7,S605K,with no effect
8,S605E,disrupting interaction strength
9,P587K,with no effect
10,P587E,with no effect
11,P587A,with no effect
12,V598K,with no effect
13,V598A,with no effect
14,V598E,with no effect
15,F574L,disrupting interaction strength
16,F574K,with no effect
17,F574E,with no effect
18,F574A,with no effect
19,L610A,disrupting interaction strength
20,L610K,with no effect
21,L610E,with no effect
22,I577E,with no effect
23,I577A,with no effect

row,Variant,effect of a mutation on the interaction
1,I577K,with no effect
2,R594K,with no effect
3,R594A,with no effect
4,R594E,with no effect
5,S573K,with no effect
6,S573E,with no effect
7,S573A,with no effect
8,D566E,with no effect
9,D566A,with no effect
10,D566K,with no effect
11,F586E,with no effect
12,F586K,with no effect
13,F586A,with no effect
14,L620E,with no effect
15,L620K,with no effect
16,L620A,with no effect
17,S618K,with no effect
18,S618A,with no effect
19,S618E,with no effect
20,Q569A,with no effect
21,Q569K,with no effect
22,Q569E,with no effect
23,T558E,with no effect

row,Variant,effect of a mutation on the interaction
1,T558K,with no effect
2,T558A,with no effect
3,I556K,with no effect
4,V600E,with no effect
5,V600A,with no effect
6,V600K,with no effect
7,N557A,with no effect
8,N557E,with no effect
9,N557K,with no effect
10,K609A,with no effect
11,K609E,with no effect
12,K595E,with no effect
13,K595A,with no effect
14,Y589K,with no effect
15,Y589A,with no effect
16,Y589E,with no effect
17,D601A,with no effect
18,D601K,with no effect
19,D601E,with no effect
20,A572E,with no effect
21,A572K,with no effect
22,A576E,with no effect
23,A576K,with no effect

row,Variant,effect of a mutation on the interaction
1,V606A,with no effect
2,V606K,with no effect
3,V606E,with no effect
4,E592K,with no effect
5,E592A,with no effect
6,V588A,with no effect
7,V588K,with no effect
8,V588E,with no effect
9,M571A,with no effect
10,M571K,with no effect
11,M571E,with no effect
12,H604K,with no effect
13,H604A,with no effect
14,H604E,with no effect
15,F575A,with no effect
16,F575K,with no effect
17,F575E,with no effect
18,L593K,with no effect
19,L593E,with no effect
20,L593A,with no effect
21,L580A,with no effect
22,L580K,with no effect
23,L580E,with no effect

row,Variant,effect of a mutation on the interaction
1,L563E,with no effect
2,L563A,with no effect
3,L563K,with no effect
4,Q581A,with no effect
5,Q581E,with no effect
6,Q581K,with no effect
7,E578K,with no effect
8,E578A,with no effect
9,E583A,with no effect
10,E583K,with no effect
11,L597E,with no effect
12,L597K,with no effect
13,L597A,with no effect
14,M614E,with no effect
15,M614K,with no effect
16,M614A,with no effect
17,I567A,with no effect
18,I567E,with no effect
19,I567K,with no effect
20,A584E,with no effect
21,A584K,with no effect
22,S570A,with no effect
23,S570K,with no effect

row,Variant,effect of a mutation on the interaction
1,S570E,with no effect
2,K599E,with no effect
3,K599A,with no effect
4,V582E,with no effect
5,V582A,with no effect
6,V582K,with no effect
7,Q608A,with no effect
8,Q608K,with no effect
9,Q608E,with no effect
10,D560K,with no effect
11,D560A,disrupting interaction strength
12,D560E,with no effect
13,H607K,with no effect
14,H607A,disrupting interaction strength
15,H607E,with no effect
16,D585A,with no effect
17,D585E,with no effect
18,D585K,with no effect
19,E591K,with no effect
20,E591A,with no effect
21,D579K,with no effect
22,D579E,with no effect
23,D579A,with no effect

row,Variant,effect of a mutation on the interaction
1,N619E,with no effect
2,N619A,with no effect
3,N619K,with no effect
4,G565E,with no effect
5,G565K,with no effect
6,G565A,with no effect
7,F590K,with no effect
8,F590E,with no effect
9,F590A,with no effect
10,D559E,with no effect
11,D559K,with no effect
12,D559A,with no effect
13,D613K,with no effect
14,D613E,with no effect
15,D613A,with no effect
16,A612E,with no effect
17,A612K,with no effect
18,H617A,with no effect
19,H617E,with no effect
20,H617K,with no effect
21,A615K,with no effect
22,A615E,with no effect

# Source: IntAct's records for PubMed 29039417
